This passage reports Kd and koff results from paper PMC7101349 (2020).

The term Kd denotes the equilibrium constant for the complex coming apart. A lower Kd goes with higher affinity. The term koff denotes a measure of how fast the partners let go of each other. A low value points to slow dissociation.

Read-outs that look alike come from different tables or passages of the source.

Holding throughout (assay): SPR
(In general: In SPR one partner is held on a chip, and binding of the other changes the refractive index at the surface.)

In test [1] the target is T1, His10-BRIL (UniProt P0ABE7 30-123).
In test [2] the target is T1, His10-BRIL. The source holds these as a separate data set.
Test [3] addresses T1, His10-BRIL. The source holds these as a separate data set.
In test [4] the target is T1, His10-BRIL. This is another data set of the same source.

B1: sAB BAK5 (Fab, V domains shown)
VH: EVQLVESGGGLVQPGGSLRLSCAASGFNVRSFSIHWVRQAPGKGLEWVAYISSSSGSTSYADSVKGRFTISADTSKNTAYLQMNSLRAEDTAVYYCARWGYWPGEPWWKAFDYWGQGTLVTVSS
VL: DIQMTQSPSSLSASVGDRVTITCRASQSVSSAVAWYQQKPGKAPKLLIYSASSLYSGVPSRFSGSRSGTDFTLTISSLQPEDFATYYCQQYLYYSLVTFGQGTKVEIK
With B1, in the test with His10-BRIL [1], the affinity, expressed as Kd, was 175 pM.

B2: BAG2 S36A (Fab, V domains shown)
VH: EVQLVESGGGLVQPGGSLRLSCAASGFNVVDFALHWVRQAPGKGLEWVAYISSSSGSTSYADSVKGRFTISADTSKNTAYLQMNSLRAEDTAVYYCARWGYWPGEPWWKAFDYWGQGTLVTVSS
VL: DIQMTQSPSSLSASVGDRVTITCRASQSVSSAVAWYQQKPGKAPKLLIYSASSLYSGVPSRFSGSRSGTDFTLTISSLQPEDFATYYCQQYLYYSLVTFGQGTKVEIK
The molecule B2 gave a koff in the test with His10-BRIL [2] of 0.00037 s⁻¹.

B3: sAB BAG2 (Fab, V domains shown)
VH: EVQLVESGGGLVQPGGSLRLSCAASGFNVVDFSLHWVRQAPGKGLEWVAYISSSSGSTSYADSVKGRFTISADTSKNTAYLQMNSLRAEDTAVYYCARWGYWPGEPWWKAFDYWGQGTLVTVSS
VL: DIQMTQSPSSLSASVGDRVTITCRASQSVSSAVAWYQQKPGKAPKLLIYSASSLYSGVPSRFSGSRSGTDFTLTISSLQPEDFATYYCQQYLYYSLVTFGQGTKVEIK
The molecule B3 returned a koff with His10-BRIL [3] of 0.00013 s⁻¹. Further, binding with His10-BRIL [1] was characterised by a dissociation constant (Kd) of 269 pM.

B4: sAB24 (Fab, V domains shown)
VH: EVQLVESGGGLVQPGGSLRLSCAASGFNFSSSSIHWVRQAPGKGLEWVAYISSSSGSTSYADSVKGRFTISADTSKNTAYLQMNSLRAEDTAVYYCARWGYWPGEPWWKAFDYWGQGTLVTVSS
VL: DIQMTQSPSSLSASVGDRVTITCRASQSVSSAVAWYQQKPGKAPKLLIYSASSLYSGVPSRFSGSRSGTDFTLTISSLQPEDFATYYCQQYLYYSLVTFGQGTKVEIK
Take B4: the koff with His10-BRIL [4] came to 0.0008 s⁻¹.

B5: BAG2 F35A (Fab, V domains shown)
VH: EVQLVESGGGLVQPGGSLRLSCAASGFNVVDASLHWVRQAPGKGLEWVAYISSSSGSTSYADSVKGRFTISADTSKNTAYLQMNSLRAEDTAVYYCARWGYWPGEPWWKAFDYWGQGTLVTVSS
VL: DIQMTQSPSSLSASVGDRVTITCRASQSVSSAVAWYQQKPGKAPKLLIYSASSLYSGVPSRFSGSRSGTDFTLTISSLQPEDFATYYCQQYLYYSLVTFGQGTKVEIK
On to B5, for which the koff with His10-BRIL [2] was 0.00028 s⁻¹.
